Non-standard residues stand in square brackets, D forms with d.
B1: calreticulin (CRT) (other, UniProt P27797 18-417, looked up)
chain: EPAVYFKEQFLDGDGWTSRWIESKHKSDFGKFVLSSGKFYGDEEKDKGLQTSQDARFYALSASFEPFSNKGQTLVVQFTVKHEQNIDCGGGYVKLFPNSLDQTDMHGDSEYNIMFGPDICGPGTKKVHVIFNYKGKNVLINKDIRCKDDEFTHLYTLIVRPDNTYEVKIDNSQVESGSLEDDWDFLPPKKIKDPDASKPEDWDERAKIDDPTDSKPEDWDKPEHIPDPDAKKPEDWDEEMDGEWEPPVIQNPEYKGEWKPRQIDNPDYKGTWIHPEIDNPEYSPDPSIYAYDNFGVLGLDLWQVKSGTIFDNFLITNDEAYAEEFGNETWGVTKAAEKQMKDKQDEEQRLKEEEEDKKRKEEEEAEDKEDDEDKDEDEEDEEDKEEDEEEDVPGQAKDEL
notes: Endogenous protein in cell lysate; pulled down with anti-CRT antibody

Assays:
[1] = biological target: T1, KLGFFKR motif-deficient (dm) ITGA2 (UniProt P17301 30-1181); test: co-immunoprecipitation with anti-CRT antibody, Western blot
T1 construct: whole, on cells; Deletion of the seven residues KLGFFKR; also called A2dm; motif-deficient ITGA2
T1 sequence (looked up): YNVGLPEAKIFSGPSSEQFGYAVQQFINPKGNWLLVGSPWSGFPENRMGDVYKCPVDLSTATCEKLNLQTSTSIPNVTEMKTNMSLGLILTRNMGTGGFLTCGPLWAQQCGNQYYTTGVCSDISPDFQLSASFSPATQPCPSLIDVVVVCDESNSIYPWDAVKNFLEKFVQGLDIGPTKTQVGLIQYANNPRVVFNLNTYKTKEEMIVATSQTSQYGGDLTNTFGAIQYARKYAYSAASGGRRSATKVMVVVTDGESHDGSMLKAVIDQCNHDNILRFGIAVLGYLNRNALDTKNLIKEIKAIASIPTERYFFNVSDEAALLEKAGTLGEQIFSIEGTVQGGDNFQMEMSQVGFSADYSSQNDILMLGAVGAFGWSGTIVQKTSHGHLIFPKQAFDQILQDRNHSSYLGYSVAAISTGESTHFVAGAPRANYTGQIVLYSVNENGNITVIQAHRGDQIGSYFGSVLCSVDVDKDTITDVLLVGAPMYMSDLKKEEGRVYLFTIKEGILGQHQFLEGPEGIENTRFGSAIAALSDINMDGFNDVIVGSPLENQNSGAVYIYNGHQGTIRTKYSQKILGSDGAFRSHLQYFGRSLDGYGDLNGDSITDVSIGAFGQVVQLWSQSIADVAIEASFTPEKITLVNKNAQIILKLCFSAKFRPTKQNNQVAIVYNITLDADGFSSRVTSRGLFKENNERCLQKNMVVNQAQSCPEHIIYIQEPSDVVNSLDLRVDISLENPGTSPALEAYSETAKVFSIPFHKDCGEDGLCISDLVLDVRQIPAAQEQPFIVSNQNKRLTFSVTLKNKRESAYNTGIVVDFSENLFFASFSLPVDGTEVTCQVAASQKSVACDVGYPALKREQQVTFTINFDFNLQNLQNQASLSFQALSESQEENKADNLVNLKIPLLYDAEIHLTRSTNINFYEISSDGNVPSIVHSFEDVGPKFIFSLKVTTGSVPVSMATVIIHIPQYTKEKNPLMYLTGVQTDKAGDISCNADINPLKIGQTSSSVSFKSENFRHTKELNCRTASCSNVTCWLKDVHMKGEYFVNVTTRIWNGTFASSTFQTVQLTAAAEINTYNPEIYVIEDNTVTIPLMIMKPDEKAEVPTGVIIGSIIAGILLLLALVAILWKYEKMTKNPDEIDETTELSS

[2] = biological target: T2, full-length ITGA2 (UniProt P17301 30-1181, limits assumed); test: co-immunoprecipitation with anti-CRT antibody from cell lysate, Western blot
T2 construct: whole, on cells; Whole protein expressed in cells; cells were lysed for co-immunoprecipitation; Any tag of the pCMV-ITGA2-CH plasmid is not described; also called integrin ITGA2
T2 sequence (looked up): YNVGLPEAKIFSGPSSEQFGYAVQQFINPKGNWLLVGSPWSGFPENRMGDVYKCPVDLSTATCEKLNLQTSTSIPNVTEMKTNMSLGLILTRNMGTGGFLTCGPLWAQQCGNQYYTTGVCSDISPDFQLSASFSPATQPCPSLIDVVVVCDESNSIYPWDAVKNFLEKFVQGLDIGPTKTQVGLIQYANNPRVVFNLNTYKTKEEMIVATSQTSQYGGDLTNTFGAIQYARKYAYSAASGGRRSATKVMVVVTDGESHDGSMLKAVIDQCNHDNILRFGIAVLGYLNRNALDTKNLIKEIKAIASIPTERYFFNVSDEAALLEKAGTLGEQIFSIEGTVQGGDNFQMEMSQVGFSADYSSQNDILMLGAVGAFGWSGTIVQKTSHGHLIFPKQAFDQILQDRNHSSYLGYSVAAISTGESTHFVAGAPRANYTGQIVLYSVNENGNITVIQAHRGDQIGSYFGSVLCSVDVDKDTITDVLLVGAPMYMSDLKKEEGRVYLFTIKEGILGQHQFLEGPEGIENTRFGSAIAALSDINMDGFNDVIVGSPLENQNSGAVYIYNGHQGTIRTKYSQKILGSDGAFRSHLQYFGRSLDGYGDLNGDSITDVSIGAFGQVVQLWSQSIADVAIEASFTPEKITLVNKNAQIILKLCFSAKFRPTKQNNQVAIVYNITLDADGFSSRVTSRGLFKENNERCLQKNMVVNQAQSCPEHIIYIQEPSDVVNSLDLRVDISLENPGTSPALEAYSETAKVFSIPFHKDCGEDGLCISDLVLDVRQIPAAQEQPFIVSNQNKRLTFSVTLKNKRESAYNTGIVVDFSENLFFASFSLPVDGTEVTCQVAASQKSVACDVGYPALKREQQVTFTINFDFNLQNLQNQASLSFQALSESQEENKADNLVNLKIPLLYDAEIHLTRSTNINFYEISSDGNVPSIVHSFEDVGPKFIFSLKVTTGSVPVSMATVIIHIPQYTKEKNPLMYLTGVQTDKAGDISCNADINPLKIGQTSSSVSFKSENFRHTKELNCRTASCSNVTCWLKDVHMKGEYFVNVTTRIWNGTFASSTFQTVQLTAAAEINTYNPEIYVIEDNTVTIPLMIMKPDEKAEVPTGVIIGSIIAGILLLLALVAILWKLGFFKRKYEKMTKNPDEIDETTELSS

[3] = biological target: T2, full-length ITGA2; test: cell-based or functional assay

Binder | binding result [1] | binding result [2] | EC50 of reversing chemoresistance in BCSCs in the presence of DOX (MTS assay) [3] [µM]
B1 | no binding | binds | 
Ac-[dR][dE][dP][dV][dC][dL][dC][dR]G[dI][dV][dW][dR][dQ][dV][dA][dP][dP][dF]G[dL][dE][dS][dR][dR][dR][dQ][dR][dR][dK][dK][dR]-NH2 (cysteine pairing not given here) [DRI-TAT-SP peptide (D-retro-inverso form of TAT-SP)] |  |  | 2.3

Source: patent US20230133141A1 (HONG KONG POLYTECHNIC UNIVERSITY, published 2023)
